The values below come from paper doi:10.1101/366336.

By Kd is commonly meant the concentration at which binding is half-saturated. Read a low Kd as a tighter complex.

The target of the data set is hPcf11 (in CF II);hClp1 (human;human, UniProt O94913;Q92989 1-1555;1-425, |). The data set is described as follows: EMSA. In general terms: A gel shift assay detects complexes by their altered migration in electrophoresis.
hPcf11 (in CF II);hClp1, sequence (O94913 whole entry, chain 1 of 2): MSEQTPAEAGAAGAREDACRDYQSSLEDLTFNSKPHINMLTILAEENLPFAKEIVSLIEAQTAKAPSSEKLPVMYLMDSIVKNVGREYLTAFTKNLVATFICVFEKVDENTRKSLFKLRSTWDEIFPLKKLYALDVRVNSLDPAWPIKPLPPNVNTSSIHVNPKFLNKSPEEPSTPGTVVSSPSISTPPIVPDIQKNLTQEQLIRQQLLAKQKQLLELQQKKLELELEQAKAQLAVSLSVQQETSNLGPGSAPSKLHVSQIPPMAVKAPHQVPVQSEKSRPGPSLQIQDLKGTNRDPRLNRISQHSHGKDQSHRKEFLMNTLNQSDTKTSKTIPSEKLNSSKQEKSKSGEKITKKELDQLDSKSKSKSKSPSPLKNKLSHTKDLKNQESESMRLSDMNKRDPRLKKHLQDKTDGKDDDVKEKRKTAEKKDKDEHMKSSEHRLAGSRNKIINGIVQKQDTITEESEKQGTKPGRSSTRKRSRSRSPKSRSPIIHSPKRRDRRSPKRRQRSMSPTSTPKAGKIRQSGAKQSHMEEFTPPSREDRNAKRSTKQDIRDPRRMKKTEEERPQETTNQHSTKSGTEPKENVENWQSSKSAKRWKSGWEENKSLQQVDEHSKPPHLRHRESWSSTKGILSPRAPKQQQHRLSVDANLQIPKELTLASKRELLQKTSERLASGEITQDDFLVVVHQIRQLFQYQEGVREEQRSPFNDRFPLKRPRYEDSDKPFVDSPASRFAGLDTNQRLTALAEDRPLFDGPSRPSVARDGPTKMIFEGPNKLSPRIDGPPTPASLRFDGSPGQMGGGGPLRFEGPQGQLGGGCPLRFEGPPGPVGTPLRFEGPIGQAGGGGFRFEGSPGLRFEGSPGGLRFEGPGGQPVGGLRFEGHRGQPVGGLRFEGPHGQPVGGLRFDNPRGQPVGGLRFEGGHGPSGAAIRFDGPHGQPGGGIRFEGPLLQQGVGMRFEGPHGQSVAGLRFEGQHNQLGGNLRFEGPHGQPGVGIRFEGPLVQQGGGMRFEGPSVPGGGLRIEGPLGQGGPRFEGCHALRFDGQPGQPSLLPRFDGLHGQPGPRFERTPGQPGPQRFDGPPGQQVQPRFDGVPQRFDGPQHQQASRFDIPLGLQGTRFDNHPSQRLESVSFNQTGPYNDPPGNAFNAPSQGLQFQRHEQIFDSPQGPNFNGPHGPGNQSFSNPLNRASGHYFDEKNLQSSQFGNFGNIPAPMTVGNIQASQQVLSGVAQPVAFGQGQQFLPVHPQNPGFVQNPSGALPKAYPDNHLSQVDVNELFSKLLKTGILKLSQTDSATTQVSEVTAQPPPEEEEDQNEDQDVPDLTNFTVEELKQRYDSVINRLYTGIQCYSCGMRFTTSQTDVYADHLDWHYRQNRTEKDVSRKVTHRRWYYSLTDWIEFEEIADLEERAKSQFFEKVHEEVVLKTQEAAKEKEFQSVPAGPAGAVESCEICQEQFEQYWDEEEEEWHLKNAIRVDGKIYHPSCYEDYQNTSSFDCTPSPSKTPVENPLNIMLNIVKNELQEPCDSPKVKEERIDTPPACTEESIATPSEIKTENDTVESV
hPcf11 (in CF II);hClp1, sequence (Q92989 whole entry, chain 2 of 2): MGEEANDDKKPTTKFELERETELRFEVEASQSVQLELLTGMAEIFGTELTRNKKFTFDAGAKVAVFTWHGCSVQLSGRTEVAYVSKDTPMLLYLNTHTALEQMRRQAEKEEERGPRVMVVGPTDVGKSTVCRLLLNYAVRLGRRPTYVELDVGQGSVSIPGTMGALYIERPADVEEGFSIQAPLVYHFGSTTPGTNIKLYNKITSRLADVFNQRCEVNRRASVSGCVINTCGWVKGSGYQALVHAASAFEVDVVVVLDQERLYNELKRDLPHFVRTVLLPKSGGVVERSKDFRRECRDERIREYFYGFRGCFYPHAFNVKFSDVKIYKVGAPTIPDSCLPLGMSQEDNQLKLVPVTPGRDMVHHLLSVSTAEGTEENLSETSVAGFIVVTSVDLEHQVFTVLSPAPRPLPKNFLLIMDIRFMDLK
In the case of GGGGGGGGGGGG (ssRNA) [G12], the Kd was 21 ± 9 nM.
To GGUUCAGGGGGAGGUGUGGGAGG (ssRNA) [202-224] belongs 0.8 nM; to GGGGGAGGUGUGGGAGG (ssRNA) [208-224], 5.2 nM.
Regarding GGGGGAGGUGUGGGAGGU (ssRNA) [208-225], the Kd was found to be 2.6 nM.
GGGUUUAAGUGGGUCACG (ssRNA) [BS2-d1]: binding was put at a Kd of 13 nM.
GGGUUUAAGUGGGUCACGUUUAAAC (ssRNA) [BS2] displayed a dissociation constant (Kd) of 11 nM.
As for UUUAAGUGGGUCACG (ssRNA) [BS2-d3], the figure is 105 nM.
As for GGGGGGGGGGGGG (ssRNA) [G13], the figure is 21 ± 12 nM; as for GGGGGGGGGGG (ssRNA) [G11], 41 nM; as for CCCUUUAAGUGGGUCACG (ssRNA) [BS2-d2], 54 nM.
